# Experimental data reported in article PMC5677968, “Familial STAG2 germline mutation defines a new human cohesinopathy” (NPJ Genomic Medicine, 2017).
# Changes are numbered by the printed parent chain. Square brackets hold non-standard residues; d marks the D form. Ends that are not written are not given here. pT = C[C@@H](OP(=O)(O)O)[C@H](N)C(=O)O
# T1: STAG2(80–930) p.Ser327Asn–SCC1(281–394) complex (human, UniProt Q8N3U4-2 80-930; O60216 281-394, p.Ser327Asn)
# T1 construct: STAG2 (SA2), human, residues 80-930, patient germline variant p.Ser327Asn; SCC1 (RAD21), human, residues 281-394, in pGEX-6p1; The methods describe only the WT STAG2(80–930) vector; also called purified STAG2–SCC1 p.Ser327Asn; SA2–SCC1 p.Ser327Asn; source: E. coli, co-expressed, purified (Glutathione Sepharose 4B, PreScission cleavage, ion exchange, size exclusion)
# T1 sequence (looked up) 1: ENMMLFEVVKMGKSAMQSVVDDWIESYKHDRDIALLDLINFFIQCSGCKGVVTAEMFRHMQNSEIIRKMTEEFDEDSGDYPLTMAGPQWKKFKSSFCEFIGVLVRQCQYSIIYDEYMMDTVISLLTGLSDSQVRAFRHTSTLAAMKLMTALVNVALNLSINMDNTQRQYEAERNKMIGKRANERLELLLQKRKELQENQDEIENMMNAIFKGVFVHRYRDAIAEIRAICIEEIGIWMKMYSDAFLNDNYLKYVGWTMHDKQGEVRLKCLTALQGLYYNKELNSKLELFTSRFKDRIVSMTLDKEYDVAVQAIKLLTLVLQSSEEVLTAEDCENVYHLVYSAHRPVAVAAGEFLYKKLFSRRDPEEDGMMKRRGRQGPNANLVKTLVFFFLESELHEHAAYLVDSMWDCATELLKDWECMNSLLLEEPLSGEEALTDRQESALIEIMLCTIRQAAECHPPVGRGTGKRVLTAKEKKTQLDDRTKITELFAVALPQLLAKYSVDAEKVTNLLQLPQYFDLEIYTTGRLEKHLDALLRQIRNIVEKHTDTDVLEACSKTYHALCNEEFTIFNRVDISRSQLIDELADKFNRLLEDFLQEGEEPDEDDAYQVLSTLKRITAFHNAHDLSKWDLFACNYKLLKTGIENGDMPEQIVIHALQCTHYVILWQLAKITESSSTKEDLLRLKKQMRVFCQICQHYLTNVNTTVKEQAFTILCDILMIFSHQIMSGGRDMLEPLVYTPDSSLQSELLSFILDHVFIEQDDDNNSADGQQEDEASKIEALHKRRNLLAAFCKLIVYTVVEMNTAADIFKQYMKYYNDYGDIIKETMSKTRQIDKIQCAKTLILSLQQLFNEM
# T1 sequence (looked up) 2: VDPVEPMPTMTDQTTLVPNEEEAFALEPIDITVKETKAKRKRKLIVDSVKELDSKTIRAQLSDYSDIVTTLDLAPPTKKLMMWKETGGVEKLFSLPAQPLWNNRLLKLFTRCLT
# T2: STAG2(80–930)–SCC1(281–394) complex, WT (human, UniProt Q8N3U4-2 80-930; O60216 281-394)
# T2 construct: STAG2 (SA2), human, residues 80-930, in pET28a; SCC1 (RAD21), human, residues 281-394, in pGEX-6p1; also called purified STAG2–SCC1 WT; SA2–SCC1 complex; source: E. coli, co-expressed, purified (Glutathione Sepharose 4B, PreScission cleavage, ion exchange, size exclusion)
# T2 sequence (looked up) 1: T1 sequence (looked up) 1 with N248S
# T2 sequence (looked up) 2: T1 sequence (looked up) 2
# B1: synthetic phospho-Thr346 SGO1 peptide containing residues 313–353 of human SGO1 (peptide, UniProt Q5FBB7 313-353, looked up)
# peptide: KSENKKTVPQKKMHKSVSSNDAYNFNLEEGVHL[pT]PFRQKVS
# notes: SGO1, human, residues 313-353; also called pSGO1; phospho-SGO1 peptide; source: synthetic peptide
# Tests used:
# [1] = target: Myc-STAG2 p.Ser327Asn (human) (UniProt Q8N3U4); test: co-IP; anti-Myc beads, lysates of HeLa Tet-On cells transfected with Myc-STAG2 WT or mutants; 3 h at 4 °C; washes with lysis buffer containing 200 mM NaCl; blots for endogenous proteins
# [2] = target: T1, STAG2(80–930) p.Ser327Asn–SCC1(281–394) …; test: ITC; MicroCal iTC200, 20 °C; 20 uM STAG2(80–930)–SCC1(281–394) complex in the cell, titrated with 300 uM pSGO1 peptide; 20 mM Tris-HCl pH 7.7, 200 mM NaCl, 5 mM TCEP; details: both partners purified
# [3] = target: T2, STAG2(80–930)–SCC1(281–394) complex, WT; test: as above; details: both partners purified
# Sequence of Myc-STAG2 p.Ser327Asn (human) (Q8N3U4 other isoform, or with tags, fused parts or gaps p.S327N): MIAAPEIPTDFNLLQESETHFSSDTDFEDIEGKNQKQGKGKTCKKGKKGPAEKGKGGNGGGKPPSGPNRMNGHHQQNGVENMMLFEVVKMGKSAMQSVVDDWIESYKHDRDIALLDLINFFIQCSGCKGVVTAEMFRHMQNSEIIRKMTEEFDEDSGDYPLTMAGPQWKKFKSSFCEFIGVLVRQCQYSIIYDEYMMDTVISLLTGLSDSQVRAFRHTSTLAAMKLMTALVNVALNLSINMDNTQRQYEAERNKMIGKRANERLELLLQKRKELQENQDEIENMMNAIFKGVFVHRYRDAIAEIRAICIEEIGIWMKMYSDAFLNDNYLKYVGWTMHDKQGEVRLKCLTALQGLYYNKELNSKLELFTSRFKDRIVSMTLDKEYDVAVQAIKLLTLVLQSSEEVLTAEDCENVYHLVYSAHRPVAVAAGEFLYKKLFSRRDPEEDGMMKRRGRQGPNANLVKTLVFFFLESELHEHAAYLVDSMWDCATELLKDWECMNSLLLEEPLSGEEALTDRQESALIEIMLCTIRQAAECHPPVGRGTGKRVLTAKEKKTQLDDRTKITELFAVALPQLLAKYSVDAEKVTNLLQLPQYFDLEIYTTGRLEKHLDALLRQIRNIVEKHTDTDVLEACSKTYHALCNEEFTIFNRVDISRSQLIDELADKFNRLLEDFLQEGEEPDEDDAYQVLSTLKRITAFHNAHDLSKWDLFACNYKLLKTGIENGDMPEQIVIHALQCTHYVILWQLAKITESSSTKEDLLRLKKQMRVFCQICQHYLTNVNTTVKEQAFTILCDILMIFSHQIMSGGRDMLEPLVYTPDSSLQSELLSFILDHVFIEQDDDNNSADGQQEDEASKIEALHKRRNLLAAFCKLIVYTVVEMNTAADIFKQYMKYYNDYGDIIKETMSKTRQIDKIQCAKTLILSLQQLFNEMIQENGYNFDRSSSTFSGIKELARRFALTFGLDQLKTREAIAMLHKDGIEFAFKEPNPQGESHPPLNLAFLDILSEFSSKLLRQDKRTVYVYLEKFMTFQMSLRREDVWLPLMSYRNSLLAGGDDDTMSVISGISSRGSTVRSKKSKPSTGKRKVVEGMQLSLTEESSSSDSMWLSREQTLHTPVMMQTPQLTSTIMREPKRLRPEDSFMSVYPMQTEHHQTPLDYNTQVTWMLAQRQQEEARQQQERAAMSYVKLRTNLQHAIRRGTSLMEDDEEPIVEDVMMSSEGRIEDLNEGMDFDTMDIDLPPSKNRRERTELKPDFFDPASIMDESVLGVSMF
reduction of binding against WT [1],Kd [2],Kd [3],Molecule
50%,,,endogenous SMC1 (from UniProt Q14683 1-1233) (natural protein)
,290 nM,230 nM,B1
